In the Immune Epitope Database (IEDB):

What was measured:
HLA-A*02:01 [1] = test: IEDB peptide-MHC binding, purified MHC/competitive/fluorescence; ≥ and ≤ were set here for values at or beyond the usual limits of such assays
HLA-A*01:01 [2] = test: IEDB peptide-MHC binding, purified MHC/competitive/radioactivity; filed as Kd, often an IC50 or EC50 that approximates it; ≥ and ≤ were set here for values at or beyond the usual limits of such assays
HLA-A*24:02 = test: IEDB peptide-MHC binding, purified MHC/competitive/fluorescence; ≥ and ≤ were set here for values at or beyond the usual limits of such assays
HLA-A*32:01 = test: IEDB peptide-MHC binding, purified MHC/competitive/radioactivity; filed as Kd, often an IC50 or EC50 that approximates it; ≥ and ≤ were set here for values at or beyond the usual limits of such assays
HLA-A*26:01 = test: as above
HLA-A*02:01 [3] = test: IEDB peptide-MHC binding, purified MHC/direct/fluorescence; filed as Kd, often an IC50 or EC50 that approximates it; ≥ and ≤ were set here for values at or beyond the usual limits of such assays
HLA-A*01:01 [4] = test: as above
HLA-B*27:05 = test: as above; conditions: source organism: Mammarenavirus juninense
HLA-A*11:01 = test: as above
HLA-A*03:01 = test: as above
HLA-B*15:01 = test: as above
HLA-B*58:01 = test: as above; conditions: source organism: Homo sapiens
HLA-B*07:02 = test: as above
HLA-A*69:01 = test: as above
HLA-A*02:06 = test: IEDB peptide-MHC binding, purified MHC/competitive/radioactivity; filed as Kd, often an IC50 or EC50 that approximates it; ≥ and ≤ were set here for values at or beyond the usual limits of such assays
HLA-A*02:02 = test: as above
HLA-A*02:03 = test: as above
[5] = source organism: Dengue virus 4 Philippines/H241/1956
[6] = source organism: Sudan ebolavirus
[7] = source organism: Dengue virus 1 Brazil/97-11/1997
[8] = source organism: Vaccinia virus
[9] = source organism: Zaire ebolavirus
[10] = source organism: Dengue virus 3 Martinique/1243/1999
[11] = source organism: Vaccinia virus WR
[12] = source organism: Dengue virus 2 Jamaica/1409/1983
[13] = source organism: Mycobacterium tuberculosis
[14] = source organism: Dengue virus 4 Dominica/814669/1981
[15] = source organism: Vaccinia virus Copenhagen
[16] = source organism: Orthohantavirus hantanense
[17] = source organism: Burkholderia mallei
[18] = source organism: SARS coronavirus Tor2
[19] = source organism: Marburg virus - Musoke, Kenya, 1980
[20] = source organism: Vibrio vulnificus
[21] = source organism: Human herpesvirus 4 strain B95-8

FNYLFGGFS was tested, and the IC50 (HLA-A*02:01 [1]; source organism: Variola virus) was 51600 nM.

For LIGKEEYVDY, the Kd (HLA-A*01:01 [2]; [5]) was 7910 nM.

For INQIIHDFI, the IC50 (HLA-A*24:02; [6]) was 2770 nM.

Work on VLEENMDVEI yielded a Kd (HLA-A*01:01 [2]; [7]) of no less than 46500 nM.

Work on LIEWAMEKS yielded an IC50 (HLA-A*02:01 [1]; [8]) of no less than 408000 nM.

ELSFTVVSN gave an IC50 (HLA-A*02:01 [1]; [9]) of no less than 220000 nM and an IC50 (HLA-A*24:02; [9]) of no less than 119000 nM.

RLLLNRFTM gave a Kd (HLA-A*32:01; [10]) of 33.2 nM.

Sequence LINFLLRSI has a Kd (HLA-A*32:01; [11]) of 254 nM.

In the case of LTILIRTGLL, the Kd (HLA-A*26:01; [12]) is reported as 8470 nM.

For KLGLITNTI, the IC50 (HLA-A*02:01 [1]; [9]) was 1920 nM.

Sequence LLYFKVFGI has a Kd (HLA-A*32:01; [11]) of no less than 37400 nM.

For HILGPDCCI, the IC50 (HLA-A*02:01 [1]; [9]) was 66400 nM and the IC50 (HLA-A*24:02; [9]) was no less than 135000 nM.

STINICLPY showed a Kd (HLA-A*32:01; [11]) of 31.5 nM.

For AWIPYFGPA, the IC50 (HLA-A*02:01 [1]; [9]) was 20000 nM and the IC50 (HLA-A*24:02; [9]) was no less than 81100 nM.

With LTAGLSVQQ the IC50 (HLA-A*02:01 [1]; [9]) was no less than 298000 nM.

In the case of ISGQSPART, the IC50 (HLA-A*02:01 [1]; [9]) is reported as no less than 137000 nM.

GLDPTGVAV was tested, and the Kd (HLA-A*02:01 [3]; [13]) was 17.4 nM.

For FTPQFLLQL, the IC50 (HLA-A*02:01 [1]; [9]) was 292 nM and the IC50 (HLA-A*24:02; [9]) was 814 nM.

SSECQGEML was tested, and the Kd (HLA-A*01:01 [4]; source organism: Homo sapiens) was 4760 nM.

IDSMFLMTA was tested, and the IC50 (HLA-A*02:01 [1]; source organism: Variola virus) was 28700 nM.

Sequence VTTWEDVPYL has a Kd (HLA-A*01:01 [2]; source organism: Dengue virus 3 Singapore/8120/1995) of 10200 nM.

For RRVAHSSLY, the Kd (HLA-B*27:05) was 170 nM.

IADMGHLKY gave a Kd (HLA-A*11:01; source organism: Homo sapiens) of 2800 nM, a Kd (HLA-A*03:01; source organism: Homo sapiens) of 3030 nM and a Kd (HLA-B*15:01; source organism: Homo sapiens) of 4090 nM. For the same sequence, the Kd (HLA-B*58:01) was 2000 nM.

With LIGNEEFLDY the Kd (HLA-A*01:01 [2]; [10]) was 1670 nM.

With LESRFTPQF the IC50 (HLA-A*24:02; [9]) was 16200 nM.

With TDFHERPVI the IC50 (HLA-A*24:02; source organism: Variola virus) was 408 nM.

In the case of GRQTQSRPI, the IC50 (HLA-A*24:02; [9]) is reported as no less than 204000 nM.

Work on GPILTLWEGN yielded a Kd (HLA-A*32:01; [14]) of 504 nM.

TFKDESIFI was tested, and the IC50 (HLA-A*24:02; [15]) was 328 nM.

Work on INVEYRFLV yielded an IC50 (HLA-A*02:01 [1]; [11]) of 1650 nM and an IC50 (HLA-A*24:02; [11]) of 5730 nM.

In the case of DKLSSTNQL, the IC50 (HLA-A*24:02; [9]) is reported as 16200 nM.

Sequence IHHASAPLT has an IC50 (HLA-A*02:01 [1]; [9]) of no less than 378000 nM.

GMHHLYREY gave a Kd (HLA-B*15:01; source organism: Mammarenavirus juninense) of 135 nM.

RTENFVLSI gave a Kd (HLA-A*32:01; [11]) of 1.62 nM.

Sequence STFIMLEGE has an IC50 (HLA-A*02:01 [1]; [15]) of no less than 434000 nM.

Work on ATVTGGIFLF yielded a Kd (HLA-A*26:01; [12]) of 2510 nM and a Kd (HLA-A*01:01 [2]; [12]) of 2030 nM.

RVTDMAPFK gave a Kd (HLA-A*03:01; source organism: Listeria monocytogenes) of 404 nM.

Sequence SSNNVSSSI has a Kd (HLA-A*32:01; [15]) of 155 nM.

In the case of GTNGISNGI, the Kd (HLA-A*32:01; [11]) is reported as 20.1 nM.

Work on APTGDLPRA yielded a Kd (HLA-B*07:02; source organism: Homo sapiens) of 5520 nM, a Kd (HLA-A*02:01 [3]; source organism: Homo sapiens) of no less than 21800 nM and a Kd (HLA-A*69:01; source organism: Homo sapiens) of 6780 nM.

In the case of GLVSKFMSN, the IC50 (HLA-A*02:01 [1]; [11]) is reported as 13800 nM.

With YRFLVINRL the IC50 (HLA-A*24:02; [11]) was 900 nM.

With EIQLTDYGAL the Kd (HLA-A*26:01; [7]) was 5580 nM.

With HHRRTDNDS the IC50 (HLA-A*02:01 [1]; [9]) was no less than 72100 nM.

MLTPINEEA gave an IC50 (HLA-A*02:01 [1]; [9]) of 780 nM.

LNDTIHLHQ showed an IC50 (HLA-A*24:02; [6]) of 34000 nM.

Sequence IGVLLTWIGL has a Kd (HLA-A*32:01; [10]) of no less than 33000 nM.

For MLYILGLFK, the Kd (HLA-A*11:01; [16]) was 18.6 nM and the Kd (HLA-A*03:01; [16]) was 102 nM.

With NSDEQSLEY the Kd (HLA-A*01:01 [4]; source organism: Francisella tularensis subsp. holarctica LVS) was no more than 1 nM.

In the case of LTKRFSLGM, the Kd (HLA-A*26:01; [12]) is reported as no less than 31800 nM.

For DAAAPLPPV, the Kd (HLA-A*02:01 [3]; [17]) was no less than 20000 nM and the Kd (HLA-A*69:01; [17]) was 0.8 nM.

In the case of NLTSTWVMY, the Kd (HLA-A*01:01 [2]; [14]) is reported as 1990 nM.

Sequence EPIVGAETF has a Kd (HLA-B*07:02; source organism: Human immunodeficiency virus 1) of 5640 nM.

For GNPGRFWNTT, the Kd (HLA-A*32:01; [12]) was 9900 nM.

WTTLLSLTF gave a Kd (HLA-A*01:01 [2]; [7]) of 11200 nM.

In the case of ITDYQGKTV, the Kd (HLA-A*01:01 [2]; [5]) is reported as no less than 33900 nM.

With ETTKRDLGM the Kd (HLA-A*26:01; [10]) was 1450 nM.

For RTWFHGSLY, the Kd (HLA-A*03:01; source organism: Cryptosporidium parvum) was 13.1 nM.

Sequence LFDLDEDDE has an IC50 (HLA-A*02:01 [1]; [9]) of no less than 212000 nM.

Work on FVDGVPFVV yielded a Kd (HLA-A*02:06; [18]) of 0.908 nM, a Kd (HLA-A*02:02; [18]) of 9.62 nM and a Kd (HLA-A*02:03; [18]) of 85.9 nM. It also gave a Kd (HLA-A*11:01; source organism: SARS-CoV1) of no less than 23100 nM, a Kd (HLA-A*02:01 [3]; source organism: SARS-CoV1) of 124 nM and a Kd (HLA-A*69:01; source organism: SARS-CoV1) of 23.3 nM. The Kd (HLA-A*01:01 [4]; source organism: SARS-CoV1) was 1410 nM.

With GVTGILQLP the IC50 (HLA-A*02:01 [1]; [9]) was 63500 nM.

Work on EFLRYLLFG yielded an IC50 (HLA-A*24:02; [8]) of 17800 nM.

With ALLTGSYTI the Kd (HLA-A*02:01 [3]; [19]) was 0.5 nM and the Kd (HLA-A*69:01; [19]) was 6660 nM.

With RTSFAFQAI the Kd (HLA-A*32:01; [11]) was 3.78 nM.

With AIMMILSTI the Kd (HLA-A*32:01; [11]) was 2.45 nM.

Sequence FRKSSFFVW has an IC50 (HLA-A*24:02; [6]) of 2420 nM.

FLNEDHWFGR gave a Kd (HLA-A*32:01; [5]) of 1560 nM.

TSITQKGIIF showed a Kd (HLA-A*01:01 [2]; [7]) of 7350 nM.

Sequence TQMGGWFQK has a Kd (HLA-A*11:01; [20]) of 43.9 nM and a Kd (HLA-A*03:01; [20]) of 848 nM.

KTMTTVYIL was tested, and the Kd (HLA-A*32:01; [11]) was 13.9 nM.

Work on GQLKLNWFKK yielded a Kd (HLA-A*32:01; [12]) of 2070 nM.

EEINNQLLL showed an IC50 (HLA-A*24:02; [8]) of 57800 nM.

In the case of IVAMLLTHGA, the Kd (HLA-A*02:06; [11]) is reported as 82.2 nM, the Kd (HLA-A*02:02; [11]) is reported as 1160 nM and the Kd (HLA-A*02:03; [11]) is reported as 153 nM.

Work on SMKGENVFI yielded a Kd (HLA-A*02:06; [11]) of 13700 nM, a Kd (HLA-A*02:02; [11]) of 5.48 nM and a Kd (HLA-A*02:03; [11]) of 18.9 nM.

With QPRAPIRPI the Kd (HLA-B*07:02; [21]) was 161 nM and the Kd (HLA-A*69:01; [21]) was 2540 nM.

GKIIHEWCCR was tested, and the Kd (HLA-A*32:01; [7]) was no less than 51600 nM.

Sequence IRYQATGFG has an IC50 (HLA-A*24:02; [9]) of 54400 nM.

In the case of QTGIQRTVFF, the Kd (HLA-A*01:01 [2]; [5]) is reported as no less than 70400 nM.

QIYLSDSDNI showed a Kd (HLA-A*02:06; [11]) of 14900 nM, a Kd (HLA-A*02:02; [11]) of 1240 nM and a Kd (HLA-A*02:03; [11]) of 19600 nM.

AVTLNRIKIA was tested, and the Kd (HLA-A*02:06; [11]) was 2290 nM, the Kd (HLA-A*02:02; [11]) was 1720 nM and the Kd (HLA-A*02:03; [11]) was 1290 nM.

In the case of TITETAATI, the IC50 (HLA-A*02:01 [1]; [6]) is reported as 44900 nM and the IC50 (HLA-A*24:02; [6]) is reported as 48400 nM.

RDKFRKSSF showed an IC50 (HLA-A*24:02; [6]) of 35700 nM.

DGIRGFPRC showed an IC50 (HLA-A*02:01 [1]; [9]) of no less than 126000 nM.

LTSRETALM gave a Kd (HLA-A*01:01 [2]; [5]) of 1800 nM.

Work on AMLAGTAVV yielded a Kd (HLA-A*02:01 [3]; [13]) of 5.9 nM.
